Data as given in patent publication US20170212117A1 (RANDOX LABORATORIES, published 2017).

T1: Recombinant human mature SLPI (Secretory leukocyte protease inhibitor)
T1 chain: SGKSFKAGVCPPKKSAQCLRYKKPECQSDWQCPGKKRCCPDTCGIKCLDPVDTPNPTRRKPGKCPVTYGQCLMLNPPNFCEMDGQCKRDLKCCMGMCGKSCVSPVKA

B1: C5.5 monoclonal antibody (supernatant of hybridoma clone C5.5) (antibody, V domains shown)
VH: EVQLVESGGGLVHPQGSLKLSCTASGFTFNTYDMNWVRQAPGKGLEWVARIRTKSYYYATYYADSVKDRFTISRDDSQTMLYLQLNNLKTEDTALYYCVRRSGNYGAMDYWGQGTSVTVSS
VL: QIVLTQSPAIMSASLGERVTMTCTASSSVSSSYLHWYQQKPGSSPKLWIYSTSNLASGVPARFSGSGSGTSYSLTISSMEAEDAATYYCHQYHRSPRTFGGGTKLEIK
notes: Used as cell-free hybridoma supernatant coated on the plate (capture antibody); also called C5.5 supernatant
B2: Human neutrophil elastase (human sputum derived NE, Elastin Products SE563) (protein)
chain: IVGGRRARPHAWPFMVSLQLRGGHFCGATLIAPNFVMSAAHCVANVNVRAVRVVLGAHNLSRREPTRQVFAVQRIFENGYDPVNLLNDIVILQLNGSATINANVQVAQLPAQGRRLGNGVQCLAMGWGLLGRNRGIASVLQELNVTVVTSLCRRSNVCTLVRGRQAGVCFGDSGSPLVCNGLIHGIASFVRGGCASGLYPDAFAPVAQFVNWIDSIIQ

How the values were obtained:
[1] = target: T2, Recombinant human mature SLPI (Secretory leukocyte protease inhibitor) (human, UniProt P03973 26-132); test: sandwich ELISA, hybridoma supernatant as capture, biotinylated anti-SLPI PAb BAF1274 as detector
T2 construct: Bought from R&D Systems (product number 1274-PI-100); also called full length SLPI; full-length SLPI
Procedure: FIG. 4. Detection of C-SLPI in CF sputum samples. CF sputum samples were assayed via ELISA for the presence of C-SLPI using the supernatant from hybridoma clone C5.5 as a capture antibody. Standard curve generated by assaying known concentration of C-SLPI produced by incubation of recombinant SLPI with NE (A). C-SLPI concentrations in 63 sputum samples derived from CF patients as identified via ELISA using C5.5 as a capture antibody (B).
A Maxisorp plate (Nunc) was coated for 16 h at 4° C. with 100 μl/well hybridoma supernatant diluted 1:50 in Voller's reagent. Cell free hybridoma supernatants were acquired directly from individual cultures by centrifugation at 1,400 rpm for 5 min. The plate was blocked with 200 μl 1% BSA in PBST 0.05% (v/v) Tween 20 for 1 h at room temperature. Either a half concentration dilution series of 200 ng/ml to 3.125 ng/ml of both C-SLPI and SLPI (100 μl/well) in 1% BSA in PBST 0.05% (v/v) Tween 20 or CF sputum samples diluted 1:50 v/v in 1% BSA in PBST 0.05% (v/v) Tween 20 were added to the plate and incubated for 2 h at room temperature. Control wells received NE alone. […] The absorbance at 405 nm of wells was measured on a microtiter plate reader (Genios using Magellan software) and results were analyzed using GraphPad Prism version 6 (GraphPad Software).

[2] = target: T1, Recombinant human mature SLPI …

Row | Binder | binding result [1] | SLPI cleavage by NE (Western blot) [2]
1 | B1 | no binding (tested: 200 ng/ml to 3.125 ng/ml) | 
2 | B2 |  | Successful cleavage of SLPI was observed at molar ratios of 1:4, 1:8 and 1:10 SLPI to NE
